Assay results published in US20250262210A1 (TRUSTEES OF COLUMBIA UNIVERSITY IN THE CITY OF NEW YORK, published 2025).
Positions count from the first letter of the chain named.

T1: LZTR1-FLAG (human, UniProt Q8N653 1-840)
T1 construct: Expressed in HEK 293T, HeLa or U87 cells; used as cell lysate; also called LZTR1 wild type-FLAG; LZTR1 WT; not shown: FLAG tag at the C-terminus
T1 sequence (looked up): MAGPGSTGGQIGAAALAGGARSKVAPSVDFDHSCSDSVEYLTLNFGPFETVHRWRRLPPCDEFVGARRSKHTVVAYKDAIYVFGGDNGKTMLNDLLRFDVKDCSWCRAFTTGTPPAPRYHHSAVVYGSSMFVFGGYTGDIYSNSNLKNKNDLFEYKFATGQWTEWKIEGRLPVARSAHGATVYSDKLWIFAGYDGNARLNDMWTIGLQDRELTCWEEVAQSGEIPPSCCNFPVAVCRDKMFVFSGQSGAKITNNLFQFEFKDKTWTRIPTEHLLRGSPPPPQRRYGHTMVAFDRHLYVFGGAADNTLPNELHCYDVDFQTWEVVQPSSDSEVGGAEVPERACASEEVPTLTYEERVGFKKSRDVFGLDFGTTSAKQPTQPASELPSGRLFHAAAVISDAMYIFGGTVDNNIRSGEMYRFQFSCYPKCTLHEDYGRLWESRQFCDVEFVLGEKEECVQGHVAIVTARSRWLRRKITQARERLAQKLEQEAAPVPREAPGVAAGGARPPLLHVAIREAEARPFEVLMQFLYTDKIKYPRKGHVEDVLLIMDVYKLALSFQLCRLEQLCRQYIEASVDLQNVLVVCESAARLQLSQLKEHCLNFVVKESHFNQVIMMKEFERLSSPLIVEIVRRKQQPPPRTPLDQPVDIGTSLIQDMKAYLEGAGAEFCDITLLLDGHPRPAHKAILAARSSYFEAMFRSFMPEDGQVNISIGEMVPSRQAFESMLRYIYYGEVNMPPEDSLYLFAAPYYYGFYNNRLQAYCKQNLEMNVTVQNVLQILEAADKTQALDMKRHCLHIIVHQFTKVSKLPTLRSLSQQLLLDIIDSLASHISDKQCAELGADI

T2: LZTR1 R810W-FLAG (human, UniProt Q8N653 1-840)
T2 construct: Stably expressed in U87 cells by lentivirus; also called LZTR1-FLAG-R810W; LZTR1 RW; not shown: FLAG tag
T2 sequence (looked up): T1 sequence (looked up) with R810W

B1: CELF1 (other, human, UniProt Q92879 1-486, looked up)
chain: MNGTLDHPDQPDLDAIKMFVGQVPRTWSEKDLRELFEQYGAVYEINVLRDRSQNPPQSKGCCFVTFYTRKAALEAQNALHNMKVLPGMHHPIQMKPADSEKNNAVEDRKLFIGMISKKCTENDIRVMFSSFGQIEECRILRGPDGLSRGCAFVTFTTRAMAQTAIKAMHQAQTMEGCSSPMVVKFADTQKDKEQKRMAQQLQQQMQQISAASVWGNLAGLNTLGPQYLALYLQLLQQTASSGNLNTLSSLHPMGGLNAMQLQNLAALAAAASAAQNTPSGTNALTTSSSPLSVLTSSGSSPSSSSSNSVNPIASLGALQTLAGATAGLNVGSLAGMAALNGGLGSSGLSNGTGSTMEALTQAYSGIQQYAAAALPTLYNQNLLTQQSIGAAGSQKEGPEGANLFIYHLPQEFGDQDLLQMFMPFGNVVSAKVFIDKQTNLSKCFGFVSYDNPVSAQAAIQSMNGFQIGMKRLKVQLKRSKNDSKPY
B2: CREB3L2 (other, human, UniProt Q70SY1 1-520, looked up)
chain: MEVLESGEQGVLQWDRKLSELSEPGDGEALMYHTHFSELLDEFSQNVLGQLLNDPFLSEKSVSMEVEPSPTSPAPLIQAEHSYSLCEEPRAQSPFTHITTSDSFNDDEVESEKWYLSTDFPSTSIKTEPVTDEPPPGLVPSVTLTITAISTPLEKEEPPLEMNTGVDSSCQTIIPKIKLEPHEVDQFLNFSPKEAPVDHLHLPPTPPSSHGSDSEGSLSPNPRLHPFSLPQTHSPSRAAPRAPSALSSSPLLTAPHKLQGSGPLVLTEEEKRTLIAEGYPIPTKLPLSKSEEKALKKIRRKIKNKISAQESRRKKKEYMDSLEKKVESCSTENLELRKKVEVLENTNRTLLQQLQKLQTLVMGKVSRTCKLAGTQTGTCLMVVVLCFAVAFGSFFQGYGPYPSATKMALPSQHSLQEPYTASVVRSRNLLIYEEHSPPEESSSPGSAGELGGWDRGSSLLRVSGLESRPDVDLPHFIISNETSLEKSVLLELQQHLVSAKLEGNETLKVVELDRRVNTTF
B3: CTH (other, human, UniProt P32929 1-405, looked up)
chain: MQEKDASSQGFLPHFQHFATQAIHVGQDPEQWTSRAVVPPISLSTTFKQGAPGQHSGFEYSRSGNPTRNCLEKAVAALDGAKYCLAFASGLAATVTITHLLKAGDQIICMDDVYGGTNRYFRQVASEFGLKISFVDCSKIKLLEAAITPETKLVWIETPTNPTQKVIDIEGCAHIVHKHGDIILVVDNTFMSPYFQRPLALGADISMYSATKYMNGHSDVVMGLVSVNCESLHNRLRFLQNSLGAVPSPIDCYLCNRGLKTLHVRMEKHFKNGMAVAQFLESNPWVEKVIYPGLPSHPQHELVKRQCTGCTGMVTFYIKGTLQHAEIFLKNLKLFTLAESLGGFESLAELPAIMTHASVLKNDRDVLGISDTLIRLSVGLEDEEDLLEDLDQALKAAHPPSGSHS
B4: CY P51A1 (other, human, UniProt Q16850 1-509, looked up)
chain: MAAAAGMLLLGLLQAGGSVLGQAMEKVTGGNLLSMLLIACAFTLSLVYLIRLAAGHLVQLPAGVKSPPYIFSPIPFLGHAIAFGKSPIEFLENAYEKYGPVFSFTMVGKTFTYLLGSDAAALLFNSKNEDLNAEDVYSRLTTPVFGKGVAYDVPNPVFLEQKKMLKSGLNIAHFKQHVSIIEKETKEYFESWGESGEKNVFEALSELIILTASHCLHGKEIRSQLNEKVAQLYADLDGGFSHAAWLLPGWLPLPSFRRRDRAHREIKDIFYKAIQKRRQSQEKIDDILQTLLDATYKDGRPLTDDEVAGMLIGLLLAGQHTSSTTSAWMGFFLARDKTLQKKCYLEQKTVCGENLPPLTYDQLKDLNLLDRCIKETLRLRPPIMIMMRMARTPQTVAGYTIPPGHQVCVSPTVNQRLKDSWVERLDFNPDRYLQDNPASGEKFAYVPFGAGRHRCIGENFAYVQIKTIWSTMLRLYEFDLIDGYFPTVNYTTMIHTPENPVIRYKRRSK
notes: Printed as CY P51A1; read as CYP51A1
B5: DHX32 (other, human, UniProt Q7L7V1 1-743, looked up)
chain: MEEEGLECPNSSSEKRYFPESLDSSDGDEEEVLACEDLELNPFDGLPYSSRYYKLLKEREDLPIWKEKYSFMENLLQNQIVIVSGDAKCGKSAQVPQWCAEYCLSIHYQHGGVICTQVHKQTVVQLALRVADEMDVNIGHEVGYVIPFENCCTNETILRYCTDDMLQREMMSNPFLGSYGVIILDDIHERSIATDVLLGLLKDVLLARPELKLIINSSPHLISKLNSYYGNVPVIEVKNKHPVEVVYLSEAQKDSFESILRLIFEIHHSGEKGDIVVFLACEQDIEKVCETVYQGSNLNPDLGELVVVPLYPKEKCSLFKPLDETEKRCQVYQRRVVLTTSSGEFLIWSNSVRFVIDVGVERRKVYNPRIRANSLVMQPISQSQAEIRKQILGSSSSGKFFCLYTEEFASKDMTPLKPAEMQEANLTSMVLFMKRIDIAGLGHCDFMNRPAPESLMQALEDLDYLAALDNDGNLSEFGIIMSEFPLDPQLSKSILASCEFDCVDEVLTIAAMVTAPNCFSHVPHGAEEAALTCWKTFLHPEGDHFTLISIYKAYQDTTLNSSSEYCVEKWCRDYFLNCSALRMADVIRAELLEIIKRIELPYAEPAFGSKENTLNIKKALLSGYFMQIARDVDGSGNYLMLTHKQVAQLHPLSGYSITKKMPEWVLFHKFSISENNYIRITSEISPELFMQLVPQYYFSNLPPSESKDILQQVVDHLSPVSTMNKEQQMCETCPETEQRCTLQ
B6: ELAC2 (other, human, UniProt Q9BQ52 17-826, looked up)
chain: SQGRTISQAPARRERPRKDPLRHLRTREKRGPSGCSGGPNTVYLQVVAAGSRDSGAALYVFSEFNRYLFNCGEGVQRLMQEHKLKVARLDNIFLTRMHWSNVGGLSGMILTLKETGLPKCVLSGPPQLEKYLEAIKIFSGPLKGIELAVRPHSAPEYEDETMTVYQIPIHSEQRRGKHQPWQSPERPLSRLSPERSSDSESNENEPHLPHGVSQRRGVRDSSLVVAFICKLHLKRGNFLVLKAKEMGLPVGTAAIAPIIAAVKDGKSITHEGREILAEELCTPPDPGAAFVVVECPDESFIQPICENATFQRYQGKADAPVALVVHMAPASVLVDSRYQQWMERFGPDTQHLVLNENCASVHNLRSHKIQTQLNLIHPDIFPLLTSFRCKKEGPTLSVPMVQGECLLKYQLRPRREWQRDAIITCNPEEFIVEALQLPNFQQSVQEYRRSAQDGPAPAEKRSQYPEIIFLGTGSAIPMKIRNVSATLVNISPDTSLLLDCGEGTFGQLCRHYGDQVDRVLGTLAAVFVSHLHADHHTGLPSILLQRERALASLGKPLHPLLVVAPNQLKAWLQQYHNQCQEVLHHISMIPAKCLQEGAEISSPAVERLISSLLRTCDLEEFQTCLVRHCKHAFGCALVHTSGWKVVYSGDTMPCEALVRMGKDATLLIHEATLEDGLEEEAVEKTHSTTSQAISVGMRMNAEFIMLNHFSQRYAKVPLFSPNFSEKVGVAFDHMKVCFGDFPTMPKLIPPLKALFAGDIEEMEERREKRELRQVRAALLSRELAGGLEDGEPQQKRAHTEEPQAKKVRAQ
B7: FADS1 (other, human, UniProt O60427 1-444, looked up)
chain: MAPDPVAAETAAQGPTPRYFTWDEVAQRSGCEERWLVIDRKVYNISEFTRRHPGGSRVISHYAGQDATDPFVAFHINKGLVKKYMNSLLIGELSPEQPSFEPTKNKELTDEFRELRATVERMGLMKANHVFFLLYLLHILLLDGAAWLTLWVFGTSFLPFLLCAVLLSAVQAQAGWLQHDFGHLSVFSTSKWNHLLHHFVIGHLKGAPASWWNHMHFQHHAKPNCFRKDPDINMHPFFFALGKILSVELGKQKKKYMPYNHQHKYFFLIGPPALLPLYFQWYIFYFVIQRKKWVDLAWMITFYVRFFLTYVPLLGLKAFLGLFFIVRFLESNWFVWVTQMNHIPMHIDHDRNMDWVSTQLQATCNVHKSAFNDWFSGHLNFQIEHHLFPTMPRHNYHKVAPLVQSLCAKHGIEYQSKPLLSAFADIIHSLKESGQLWLDAYLHQ

molecular target: T1, LZTR1-FLAG; test: IP/MS, LZTR1 wild type-FLAG, U87
In short: (§1)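 Gel slices were reduced with 5 mM DTT, alkylated with 11 mM IAA and digested overnight at 37° C. with trypsin. Peptides were analysed on an Orbitrap Fusion Tribrid by LC-MS/MS.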

Binding result, binds:
B1
B2
B3
B4
B5
B6
B7

molecular target: T2, LZTR1 R810W-FLAG; test: IP/MS, LZTR1 R810W-FLAG, U87
In short: as §1

Binding result, binds:
B1
B2
B3
B4
B5
B6
B7
